Experimental data: IntAct's records for PubMed 22908257

Target: ABI2, O04719-1
Sequence (O04719 whole entry): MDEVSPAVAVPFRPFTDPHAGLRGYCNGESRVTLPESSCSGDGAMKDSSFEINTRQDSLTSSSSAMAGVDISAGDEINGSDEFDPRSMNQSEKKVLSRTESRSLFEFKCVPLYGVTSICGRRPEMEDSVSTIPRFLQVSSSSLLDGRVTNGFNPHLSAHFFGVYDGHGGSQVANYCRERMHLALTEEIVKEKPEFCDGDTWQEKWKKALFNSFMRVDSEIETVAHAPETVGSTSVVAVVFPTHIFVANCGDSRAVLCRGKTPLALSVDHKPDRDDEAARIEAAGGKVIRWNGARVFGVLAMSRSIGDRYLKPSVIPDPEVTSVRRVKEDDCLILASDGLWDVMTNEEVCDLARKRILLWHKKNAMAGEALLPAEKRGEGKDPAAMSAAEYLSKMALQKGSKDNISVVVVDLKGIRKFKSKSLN

Chain of Rac-like GTP-binding protein ARAC10 (Arabidopsis thaliana (Mouse-ear cress)), O82481 D123A (O82481 whole entry D123A): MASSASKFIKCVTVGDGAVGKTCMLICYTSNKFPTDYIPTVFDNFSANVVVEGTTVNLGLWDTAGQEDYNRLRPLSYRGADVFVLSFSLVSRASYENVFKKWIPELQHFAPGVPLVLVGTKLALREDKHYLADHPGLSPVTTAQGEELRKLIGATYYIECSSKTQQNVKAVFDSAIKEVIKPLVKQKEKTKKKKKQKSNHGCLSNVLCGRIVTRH

Rac-like GTP-binding protein ARAC10 (Arabidopsis thaliana (Mouse-ear cress)), O82481 D123A
effect of a mutation on the interaction: disrupting interaction strength
